For 109 sequences, AmyQ secretion efficiency results are on record in the supplement of paper PMC9942255.

Values joined by “and” are separate entries in the source; they are usually repeats but may differ in a detail not shown here. Equal values may be shown once.

The data set relates to Bacillus subtilis DB104 (SP-AmyQ fusion secretion). Put plainly: AmyQ secretion efficiency, weighted average sort bin (1 = best secretion, 10 = worst) (bin number (weighted average, 1-10)); higher = lower secretion efficiency. Put shortly:
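Designed signal peptides were fused to mature AmyQ and expressed from the amyE locus in B. subtilis DB104, and this library was loaded at about 0.3 cells per ~65 nL alginate bead together with fluorescein-starch. After about 13 h of growth at room temperature and nile red staining, occupied beads were split into 10 equally populated bins by green/red fluorescence ratio using large-particle flow cytometry. Amplicons from every bin were Illumina-sequenced. The secretion score is the average bin number weighted by read frequency and normalised to beads per bin, excluding low-abundance sequences.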

MKKRLIAPMLLSAASLAFFAMSGSEQAAAY registered an AmyQ secretion efficiency of 3.75.

MFMMSTNNFKRFIAAFLVLALMISLVPADVLAKST: the AmyQ secretion efficiency was determined as 2.59.

MGRFSTAYLLLGILCSAAVFLIGAPSRALGAEV displayed an AmyQ secretion efficiency of 2.59.

MFKKLLLATSALTFSLSLVLVLSIHAKAQEV gave an AmyQ secretion efficiency of 3.44.

As for MKRIRIPMTLALGAALTIAPLSFASYEEN, the AmyQ secretion efficiency is 6.51.

As to MKRTWNRCGSSYKTYYLVAGSVPFHAEAKKP, the AmyQ secretion efficiency stood at 6.5.

In the case of MLCVMMLLFSAIASFPVSPQAKDQ, the AmyQ secretion efficiency is 6.39.

In turn, MKLWMRKTLVVLFTIVTFGLVSPPAALMGDKP came in with an AmyQ secretion efficiency of 4.12.

As to MKLSVKIALVLIVAAAAMTAKMYATAKGN, the AmyQ secretion efficiency worked out at 3.77.

MKKSQYFIVFICFFVLFSSHPDEAAAADS showed an AmyQ secretion efficiency of 4.15.

In turn, MKTKTLFIFSAILTLSIFAPNEMFAQTA yielded an AmyQ secretion efficiency of 1.9.

MKKAAAVLLSLGLVFGFSYGAGHVAEGKTK displayed an AmyQ secretion efficiency of 2.6.

MFRMIVRMTLPLLIVCLAFSSFSASARAASE: the AmyQ secretion efficiency was 1.61.

For the sequence MKSKWMRQKRLVAVGFSFTQVMVHAGET, the AmyQ secretion efficiency turned out to be 8.54.

MKNMSCKLVVSVTLFFSFLFTIGPLAHAQNS yielded an AmyQ secretion efficiency of 1.19.

Regarding MMITWNVCLTALLSVLLVAGSVPFHAEAKKP, the AmyQ secretion efficiency was found to be 3.89.

Consider MFNRLFRGCGGKQKIMAFTLPNSVYAQKP, for which the AmyQ secretion efficiency is 7.39.

In the case of MRKTIFAFLTGLMMFGTITAASRSPD, the AmyQ secretion efficiency stood at 6.51.

Turning to MKKVLMAFIICLSLILSAKAESV, the AmyQ secretion efficiency worked out at 4.24.

For the sequence MKRLLSTLLIGIMLLTFAPSVFAKQD, the AmyQ secretion efficiency is 1.93.

Consider MKKRRGRGSVLVPALIMSGITLIEANKK, for which the AmyQ secretion efficiency worked out at 7.89.

In turn, MKRIRIPMTLALGAALTIAPLSFASAAPK registered an AmyQ secretion efficiency of 1.85.

The sequence MKLRKVLTGSVLSLGLLEKDSPAFATSP returned an AmyQ secretion efficiency of 6.38.

In the case of MAIIIAIIAAVIVIAALITFNVRNCSPG, the AmyQ secretion efficiency amounted to 5.87.

As for MTGGSAVLLSLIMLIAGFLISFSFQM, the AmyQ secretion efficiency stood at 7.63.

MKRLLVSLRVWMVFLMNWVTPDRKTPAAAVY: the AmyQ secretion efficiency worked out at 7.55.

In the case of MKKRLIGFLVLVPALIMSGITLIEWNKK, the AmyQ secretion efficiency is 3.04.

Regarding MPINTFVMMCLAVTLVFGSMSFPTLTNSGGFKE, the AmyQ secretion efficiency was found to be 7.23.

Take MPIKKKVMMCLAVTLVFGSMSFPTLTNKGGFKE: the AmyQ secretion efficiency was found to be 7.01.

For MNFKKTVVSALSISALALSVSGVASSHEI, the AmyQ secretion efficiency is 5.89.

In turn, MGLGKKLSVAVAASFMSLSISLPGVQPAEG yielded an AmyQ secretion efficiency of 4.8.

MLKKIALTLCPAIVGSLLFFTAPASFHVS showed an AmyQ secretion efficiency of 7.41.

For MFRLLVSLRVWMVFLMNWVTPDRKTAAAAVY, the AmyQ secretion efficiency was 7.07.

MKKKLAAGLTASAIVGTTLVVTPLEAATI: the AmyQ secretion efficiency turned out to be 3.17.

As for MRSYIKVLTMCFLGLILFVPTALKDNS, the AmyQ secretion efficiency is 7.49.

On to MTMLRKIIGWILLLCIIPLFAFTVISSGKEV, for which the AmyQ secretion efficiency was 6.13.

MKRLLSTLLIGIMLLTFAPSAFCKQD displayed an AmyQ secretion efficiency of 2.6.

For MKKIWIGMLAAAVLLLMVPKVSLADAA, the AmyQ secretion efficiency is 3.23 and 2.34 and 3.08.

The sequence MKSLPYTIALLFCGLIIVSMAAKGHST [wt_52] showed an AmyQ secretion efficiency of 6.6.

On to MKRITINIITMFIAAAVISLTGTAEAASS, for which the AmyQ secretion efficiency worked out at 2.16.

For the sequence MKKWRYTKRQRKLILAGIALFVFISPLKSHKT, the AmyQ secretion efficiency was 6.51.

Consider MKVLLSALLLLLFAFEPSTVVTAATAVASGKKL, for which the AmyQ secretion efficiency worked out at 2.96.

Turning to MKVLLSALLLLLFAFEPSRSGKKL, the AmyQ secretion efficiency was found to be 6.31.

For MKSCKQLIVCSLAAILLLIPSVSFGADS, the AmyQ secretion efficiency worked out at 3.57.

Sequence MTKLKMLSMRSRMIASLFIFSSQALAVQY came in with an AmyQ secretion efficiency of 3.8.

Turning to MKRFSTAYLLLGILCSAAVFLIGAPSRALCAEV, the AmyQ secretion efficiency was determined as 3.3.

Take MPIKKKVMMCLAVTLVFGSMSFPTLTNSGGFSG: the AmyQ secretion efficiency amounted to 3.08.

Regarding MKRMIVRMKRPSLIVCLAFSSFSASARAASE, the AmyQ secretion efficiency came to 6.12.

In turn, MTTKFTALAVFLLCFMPAAKIEHTQASLL registered an AmyQ secretion efficiency of 4.17.

Sequence MKRLFMKASLVLFAVVFVFAVKGAPAKAATH came in with an AmyQ secretion efficiency of 1.71.

On to MPYLKRVLLLLVTGLFMSLFRKRRKRASAQTG, for which the AmyQ secretion efficiency came to 6.94.

MTMLRKIIGWILLLCIIPLFAFTVIASQKEV yielded an AmyQ secretion efficiency of 6.87.

Sequence MFNRLFRVCFLAALIMAFTLPNSVYDQKP showed an AmyQ secretion efficiency of 6.94.

MFKKHTISLLIIFLLASAVLAKPTEAHTV: the AmyQ secretion efficiency amounted to 2.68.

On to MKTLRTLCVLMILSGVIFFGLKIDCKDI, for which the AmyQ secretion efficiency is 5.37.

For the sequence MGMKKKLSLGVASAALGLALVGGGTWCAFN, the AmyQ secretion efficiency came out at 4.28.

In turn, MSKWMAGLFLAAAVLLCLMVPQQIQGASS yielded an AmyQ secretion efficiency of 4.5.

Regarding MKKRLIAPMLLSAASLAFFAMSGSAQCAAY, the AmyQ secretion efficiency turned out to be 6.

As to MKKWMATGSLAAAVLLCLMVPQQIQGASS, the AmyQ secretion efficiency was found to be 2.83.

MMKKLFHSTLIVLLFFSFFGVIPIHAKKQ showed an AmyQ secretion efficiency of 1.92.

MRKKIKVLTMCFLGLILFVPTALADNS: the AmyQ secretion efficiency stood at 1.88.

Turning to MKRLCLWFTVFSLFLVLLPGKALYAVD, the AmyQ secretion efficiency is 4.11.

MNKLKRLSMLTVMIASVFIFSSHTLAAQY displayed an AmyQ secretion efficiency of 1.95.

In turn, MYSKGLLAGALTATVLFGTCAVDVPGIISPKTAEAASQ returned an AmyQ secretion efficiency of 2.38.

MKQGKFSVKKRKLLMLTLVVAPKEKAEAASS displayed an AmyQ secretion efficiency of 8.14.

With MKKWLIIAVSLAIAIVLFMYTKGEAKAAGK, the AmyQ secretion efficiency came to 2.87.

The sequence MKLAKRVSALTPSTTLAITTKAKEL registered an AmyQ secretion efficiency of 6.55.

Regarding MKLAKRVSALTPSTTLAITEKAKEL, the AmyQ secretion efficiency was 7.31.

In turn, MAIIIAIIAAVIVIAALITFNRNASPG gave an AmyQ secretion efficiency of 6.99.

The sequence MRSYIKVLTMCFLGLILFVPTYLADNS gave an AmyQ secretion efficiency of 7.74.

As to MKKGIIRFLLVSFVLFFALSTGITGVQAAPK, the AmyQ secretion efficiency was 1.02.

Consider MKLSVKIAGVLTVAAAAMTAKMYATAADD, for which the AmyQ secretion efficiency was found to be 6.81.

MKRIRIPMTLALGAALTIAPLSFASAATD returned an AmyQ secretion efficiency of 2.9.

MKKKLAAGLTASAIVGTTLVVTPAEAATR showed an AmyQ secretion efficiency of 2.36.

MRKKCSVCLWILVLLLSCDSGKSAYAATS gave an AmyQ secretion efficiency of 3.15.

In turn, MRMLWRSLALCGLALTLAPCAQAAKK yielded an AmyQ secretion efficiency of 2.93.

With MKRIRIPMKLALGAALTIAPLSFASAEEN, the AmyQ secretion efficiency came to 4.57.

MFNRLFRVCFLAALIMAFTLPNSVYVQKP returned an AmyQ secretion efficiency of 6.52.

For MTTTSIFVITCVMAASLTLGSLLPAGYASAKED, the AmyQ secretion efficiency was found to be 3.58.

The sequence MRKTIFAFLTGLMMFGTITAASASPF displayed an AmyQ secretion efficiency of 4.61.

MTMLRKIIGWILLLCIIPLFAFTVIASVKEV came in with an AmyQ secretion efficiency of 7.89.

Sequence MKSKGSIMACLILFSFTITTFINTETISAFSD gave an AmyQ secretion efficiency of 6.02.

In turn, MLCVMMLLFSAIASFPVSRQAKDQ had an AmyQ secretion efficiency of 7.53.

Consider MKLKSKLLLSCLALSTVFVLFSTATTIANAPTH, for which the AmyQ secretion efficiency stood at 4.84.

MKWMCSTCCAAVLLAGGAAQAEAV yielded an AmyQ secretion efficiency of 2.63.

In the case of MKLWMRKTLVVLFTIVTFGLVSPPAALMYDKP, the AmyQ secretion efficiency turned out to be 3.73.

As for MKRKLLSSLAISALSLGLLVSAPTASFADDE, the AmyQ secretion efficiency came to 5.75.

MKKKQVMLKRTAAAGLGLTALHSAPAAKAAPL had an AmyQ secretion efficiency of 6.55.

The sequence MLKKKWMTGGTKRCLAAGGFSYNAFATEN registered an AmyQ secretion efficiency of 7.54.

For MSGSSVMMLALTAAAGLGLTALHSAPAAKAAPL, the AmyQ secretion efficiency was 2.7.

MKNMSCKLVVSVTLFFSFLTIGPLGHAQNS returned an AmyQ secretion efficiency of 2.46.

MKRIRIPMTLALGAALTIAPLSFFSAEEN displayed an AmyQ secretion efficiency of 6.31.

As for MSKRLIAPMLLSAASLAFFAMSGSAQAAAY, the AmyQ secretion efficiency is 3.13.

As for MRGKSAVLLSLIMLIAGFLDEESFSFQM, the AmyQ secretion efficiency is 5.97.

MMKKGLLAGALTATVLFGTCAVGVPGIISPKTAEAASQ came in with an AmyQ secretion efficiency of 1.35.

MHLIRAAGAVCLAVVLIAGCRFNEDQHQGEGENT: the AmyQ secretion efficiency is 6.63.

MTKKAWFLPLVCVLLISGWLAPAASLSAQTT had an AmyQ secretion efficiency of 3.89.

Take MKVLLSALLLLLFAEEDSASGKKL: the AmyQ secretion efficiency came out at 6.1.

Take MKKSQYFIVFICFFVLFSVHPIARAAADS: the AmyQ secretion efficiency came out at 3.28.

In turn, MMIKQCYGCKSLLVFGTTAAHAEET came in with an AmyQ secretion efficiency of 7.62.

With MKTKTLKRFSAILTLSIFAPNETFAQTA, the AmyQ secretion efficiency is 3.24.

For the sequence MKIRKQRGYTGLSFGMLISAVPALAAGT, the AmyQ secretion efficiency is 6.92.

In turn, MKVCQKSIVRFLVSLIIGTFVISVPFMANAQSK came in with an AmyQ secretion efficiency of 2.23.

The sequence MKLSVKIAGVLTVAAAAMTAKMYCTAKGN displayed an AmyQ secretion efficiency of 7.19.

With MAIIIAIIAAVIVIAALITFNVENASPG, the AmyQ secretion efficiency was found to be 8.68.

For the sequence MFKKLLLATSALTFSLSLVLDAKAQEV, the AmyQ secretion efficiency was determined as 2.17.

For the sequence MTMLRKIIGWILLLCIIPLFAFTVIDSGKEV, the AmyQ secretion efficiency came out at 6.22.

MKKRLIAPMLLSAASLAFFAMSGSAQHAAY registered an AmyQ secretion efficiency of 7.18.

Sequence MTMLRKIIGWILLLCIIPLFAFTVIPSGKEV registered an AmyQ secretion efficiency of 8.07.
